pKi: −log10 of the molar value. Where two headings read alike, the source gives them in different places.

The subject of data set [1] is ErmE erythromycin resistance methyltransferase. Conditions: Km of methylation; 10 mM MgCl2, 100 mM NH4Cl, pH 7.8, 30 min 25 C.
Data set [2] deals with TSR thiostrepton resistance methyltransferase (tsr) (Streptomyces azureus) (UniProt P18644). Particulars: Km of methylation; 5 mM MgCl2, 25 mM NH4Cl, pH 7.5, 25 C.
The next data set relates to Ribosomal protein L11. Briefly: inhibition. Particulars: affinity from inhibition of TSR methylation; 5 mM MgCl2, 25 mM NH4Cl, pH 7.5, 25 C.
Data set [3] addresses TSR thiostrepton resistance methyltransferase (tsr) (Streptomyces azureus) (UniProt P18644). Conditions: Km +/-3 nM, 15 experiments; 5 mM MgCl2, 25 C.

As for 23S rRNA (Erm substrate), the activity in data set [1] worked out at 23 nM.
Substance E. coli mGAR 60-mer yielded an activity in data set [2] of 50 nM. Also, the negative logarithm of the Ki (pKi) in the data set on Ribosomal protein L11 is 7.08.
As to GAR 58-mer RNA, the activity in data set [3] was determined as 47 nM.

As a reminder, the pKi is the Ki on a negative log10 scale, so that one unit is a factor of ten. A higher pKi goes with a small Ki.

The values are drawn from patent US20020037516.
